Laboratory results published in US20090215075A1, “THREE-DIMENSIONAL STRUCTURE OF A DNAB-FAMILY R[…] (G40P), USES THEREOF, AND METHODS FOR […]-BACTERIAL PATHOGENS BY […] HELICASES AND THE INTERACTIONS OF DNAB HELICASE WITH PRIMASE” (priority 2007, published 2009).

T1: B. subtilis DnaG primase (Bacillus subtilis, UniProt P05096 1-603, limits assumed)
T1 construct: Recombinant
T1 sequence (looked up): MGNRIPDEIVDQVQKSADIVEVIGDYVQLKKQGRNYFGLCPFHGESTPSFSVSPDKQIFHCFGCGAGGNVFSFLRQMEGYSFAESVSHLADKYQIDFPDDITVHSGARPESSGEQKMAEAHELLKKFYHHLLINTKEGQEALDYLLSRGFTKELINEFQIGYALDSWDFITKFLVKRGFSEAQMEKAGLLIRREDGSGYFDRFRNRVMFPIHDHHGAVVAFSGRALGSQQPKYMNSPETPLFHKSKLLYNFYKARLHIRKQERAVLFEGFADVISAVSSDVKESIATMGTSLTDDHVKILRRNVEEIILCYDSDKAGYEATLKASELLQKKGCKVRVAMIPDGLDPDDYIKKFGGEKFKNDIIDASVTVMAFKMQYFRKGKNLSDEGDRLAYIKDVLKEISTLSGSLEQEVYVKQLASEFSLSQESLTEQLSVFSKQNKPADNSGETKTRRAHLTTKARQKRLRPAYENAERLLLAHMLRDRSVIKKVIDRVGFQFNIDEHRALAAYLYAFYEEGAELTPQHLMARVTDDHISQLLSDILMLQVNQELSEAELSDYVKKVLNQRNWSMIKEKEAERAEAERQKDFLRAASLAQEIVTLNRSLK

B1: G40P N-terminal deletion mutant ΔN92 (enzyme)
chain: STTTFKQHCQTVSEYFQKRKAISIAQQIIENVNESDDGPVKPIQEAVSELMEIEASGTDDDDGSIDEALVTVYEEIESADGNITGVPSGFTELDRMTYGYKRRNFVLIAARPSMGKTAFALKQAKNMSDNDDVVNLHSLEMGKKENIKRLIVTAGSINAQKIKAARRDFASEDWGKLSMAIGEISNSNINIFDKAGQSVNYIWSKTRQTKRKNPGKRVIVMIDYLQLLEPAKANDSRTNQISQISRDLKKMARELDVVVIALSQLSRQVEQRQDKRPMLSDLRESGQLEQDADIIEFLYRDDYYDKESESKNIVEVIIAKHRDGPVGTVSLAFIKEYGNFVNLERRFDDR
notes: Lacks the N-globe and keeps an intact α-hairpin; Forms hexamers in gel filtration
B2: G40P N-terminal deletion mutant ΔN112 (enzyme)
chain: AISIAQQIIENVNESDDGPVKPIQEAVSELMEIEASGTDDDDGSIDEALVTVYEEIESADGNITGVPSGFTELDRMTYGYKRRNFVLIAARPSMGKTAFALKQAKNMSDNDDVVNLHSLEMGKKENIKRLIVTAGSINAQKIKAARRDFASEDWGKLSMAIGEISNSNINIFDKAGQSVNYIWSKTRQTKRKNPGKRVIVMIDYLQLLEPAKANDSRTNQISQISRDLKKMARELDVVVIALSQLSRQVEQRQDKRPMLSDLRESGQLEQDADIIEFLYRDDYYDKESESKNIVEVIIAKHRDGPVGTVSLAFIKEYGNFVNLERRFDDR
notes: Limits inferred from the name, by analogy with ΔN129 = residues 130-442; Forms hexamers in gel filtration
B3: G40P N-terminal deletion mutant ΔN108 (enzyme)
chain: QKRKAISIAQQIIENVNESDDGPVKPIQEAVSELMEIEASGTDDDDGSIDEALVTVYEEIESADGNITGVPSGFTELDRMTYGYKRRNFVLIAARPSMGKTAFALKQAKNMSDNDDVVNLHSLEMGKKENIKRLIVTAGSINAQKIKAARRDFASEDWGKLSMAIGEISNSNINIFDKAGQSVNYIWSKTRQTKRKNPGKRVIVMIDYLQLLEPAKANDSRTNQISQISRDLKKMARELDVVVIALSQLSRQVEQRQDKRPMLSDLRESGQLEQDADIIEFLYRDDYYDKESESKNIVEVIIAKHRDGPVGTVSLAFIKEYGNFVNLERRFDDR
notes: as for B2
B4: G40P N-terminal deletion mutant ΔN129 (enzyme)
chain: GPVKPIQEAVSELMEIEASGTDDDDGSIDEALVTVYEEIESADGNITGVPSGFTELDRMTYGYKRRNFVLIAARPSMGKTAFALKQAKNMSDNDDVVNLHSLEMGKKENIKRLIVTAGSINAQKIKAARRDFASEDWGKLSMAIGEISNSNINIFDKAGQSVNYIWSKTRQTKRKNPGKRVIVMIDYLQLLEPAKANDSRTNQISQISRDLKKMARELDVVVIALSQLSRQVEQRQDKRPMLSDLRESGQLEQDADIIEFLYRDDYYDKESESKNIVEVIIAKHRDGPVGTVSLAFIKEYGNFVNLERRFDDR
notes: Forms hexamers in gel filtration; also called G40P-Δ129; G40P truncated monomer
B5: G40P N-terminal fragment N149 (other)
chain: MNPEEKTVMLYNEYAEQAVLGSILTEPELIKECPLTPEHFSPGKHFNIYFTMQDLDRKGQSVDFTSIAARVGEKLPQLGGFGYLTELAASVASTTTFKQHCQTVSEYFQKRKAISIAQQIIENVNESDDGPVKPIQEAVSELMEIEASG
notes: Contains only the N-globe and α-hairpin domains; Limits inferred from the name; Behaved like a monomer in gel filtration
B6: G40P N-terminal fragment N171 (other)
chain: MNPEEKTVMLYNEYAEQAVLGSILTEPELIKECPLTPEHFSPGKHFNIYFTMQDLDRKGQSVDFTSIAARVGEKLPQLGGFGYLTELAASVASTTTFKQHCQTVSEYFQKRKAISIAQQIIENVNESDDGPVKPIQEAVSELMEIEASGTDDDDGSIDEALVTVYEEIESA
notes: as for B5
B7: B. subtilis DnaG primase (protein)
chain: T1 sequence (looked up)

test system: 32P-labeled 60-base oligonucleotide annealed to circular M13mp18 ssDNA; test: Helicase assay; assay type: biochemical; details: absence of primase; relative to full-length (wt) G40P
Procedure: The substrate for the helicase assay was prepared by annealing a ^32P-labeled ssDNA (a 60-base oligonucleotide) to the circular M13mp18 ssDNA. This oligonucleotide has 35 nucleotides annealed to the M13 DNA, leaving a 25-nucleotide 5′ overhang. The substrate DNA was incubated with various amounts of different G40P mutant proteins in the presence or absence of primase at 37 degrees C. for 30 minutes in a buffer containing 20 mM Tris-HCl (pH 7.5), 5 mM ATP, 10 mM MgCl2, 1 mM DTT, and 50 mM NaCl. The reaction was terminated by adding a stop solution containing 100 mM EDTA, 0.5% SDS, and 50% glycerol. Samples were analyzed on a 12% native polyacrylamide gel in 1 M Tris/borate/EDTA running buffer. The unwinding of the substrate DNA was detected by autoradiography.

Molecule	helicase activity retained, of the wt activity
B1	~66%

same assay, conditions: compared with wt G40P

Molecule	helicase activity (in words)
B2	no detectable helicase activity
B3	no detectable helicase activity
B4	no detectable helicase activity

molecular target: T2, B. subtilis DnaG primase (Bacillus subtilis, UniProt P05096); test: Native gel shift assay of primase binding; details: native gel shift with B. subtilis DnaG primase
T2 construct: GST (N); made in house; host or cells: E. coli
Procedure: (§1) Interactions between G40P and B. subtilis DnaG primase were examined using a native gel shift assay. 10 ug of various G40P constructs were mixed with 10 ug primase in a buffer containing 25 mM TrisHCl pH 8.0, 50 mM NaCl, 5 mM MgCl2, and 1 mM ATP-γ-S and incubated for 30 minutes on ice. The protein mixtures were then analyzed by 6% polyacrymamide native gel electrophoresis at 150 voltage for one hour at 4 degrees C. The gel was stained by Coomassie blue for detection.

Molecule	primase binding
B2	devoid of primase binding
B1	devoid of primase binding
B3	devoid of primase binding
B5	no detectable primase binding
B6	no detectable primase binding
B4	devoid of primase binding

molecular target: T1, B. subtilis DnaG primase; test: native gel shift assay, 10 ug G40P construct with 10 ug primase; details: not given
Description: G40P/DnaB replicative helicases bind DnaG primase at the replication fork, this interaction is important for coordinating DNA unwinding by the helicase with RNA primer synthesis by the primase. We investigated the requirement of N-terminal domain of G40P in primase binding using the N-terminal deletions. […] We next examined if the isolated N-terminal domain of G40P can bind primase. The two constructs containing only the N-terminal α-hairpin and N-globe domains (N149 and N171) had no detectable primase binding in native gel shift assays (FIGS. 4d and 11). Both constructs behaved like monomers in gel filtration (data not shown).
as §1, with “MgCl₂,” for “MgCl2,”

Molecule	binding result
B2	no binding
B1	no binding
B3	no binding
B5	no binding
B6	no binding
B4	no binding

molecular target: G40P point mutant mt4; test: not given; details: not given

Molecule	primase-mediated stimulation of the ATPase and helicase activity of G40P
B7	mt4 displayed much reduced primase-mediated stimulation of the ATPase and helicase activity of G40P
